Data on one substance can be found in PMC8748450.

The term Kd denotes the constant that tells how readily two partners part at equilibrium. Higher therefore signals weaker binding.

The target of the assay is apo-LgnD-C1-T1-C2 tridomain (truncated LgnD). Description: ITC; LgnA (125 µM) titrated into LgnD or truncated LgnD (25 µM), also into LgnB (concentrations for LgnB not told); thirteen 3 µL injections, 25 °C; one set binding model; MicroCal PEAQ-ITC. On the technique in general: In ITC the heat of successive injections is recorded.

“LgnA, type II thioesterase (TEII) orthologue (enzyme)” returned a dissociation constant Kd of 1700 nM.
